These results are taken from patent US20200123254A1 (LENTIGEN TECHNOLOGY, published 2020).

Changes are numbered by the printed parent chain.

The chains are these.
B1: human anti-CD19 ScFv binder M19217 (scFv)
scFv: EVQLVQSGAEVKKPGASVKVSCKASGYTFTSYYMHWVRQAPGQGLEWMGIINPSGGSTSYAQKFQGRVTMTRDTSTSTVYMELSSLRSEDTAVYYCARSDRGITATDAFDIWGQGTMVTVSSGGGGSGGGGSGGGGSQSVLTQPPSVSVAPGQTAKITCGGSDIGNKNVHWYQQKPGQAPVLVVYDDYDRPSGIPERFSGSNSGDAATLTISTVEVGDEADYFCQVWDSSGDPYWVFGGGTQLTVLG
notes: also called ScFv1; founder clone
B2: human anti-CD19 ScFv binder M19217-29 (scFv)
scFv: B1 scFv with I50M, V169A, P195S, S229G, Y234F
notes: also called ScFv6
B3: human anti-CD19 ScFv binder M19217-40 (scFv)
scFv: B1 scFv with K13R, E46V, I50L, I157T, F223V, S229G
notes: also called ScFv8
B4: human anti-CD19 ScFv binder M19217-38 (scFv)
scFv: B1 scFv with K13R, Q43R, I50L, K63E, T74M, T104S, T154M, D189N, S229G, V245D
notes: also called ScFv7
B5: human anti-CD19 ScFv binder M19217-23 (scFv)
scFv: B1 scFv with S31G, M48I, I50L, A61E, T69A, N166D, S229G, S230I
notes: also called ScFv5
B6: human anti-CD19 ScFv binder M19217-7 (scFv)
scFv: B1 scFv with K12N, I50M, A105S, V149L, D189N, A206S, S229G
notes: also called ScFv4
B7: human anti-CD19 ScFv binder M19217-2 (scFv)
scFv: B1 scFv with L45F, I50L, G56S, S85N, S148P, T158I, S229G
notes: also called ScFv3
B8: human anti-CD19 ScFv binder M19217-1 (scFv)
scFv: B1 scFv with I50L, Q153R, T154M, S229G, V236M
notes: also called ScFv2
B9: LTG2050 (LP-M19217-CD8 TM-41BB-CD3 zeta) CAR (other)
chain: EVQLVQSGAEVKKPGASVKVSCKASGYTFTSYYMHWVRQAPGQGLEWMGIINPSGGSTSYAQKFQGRVTMTRDTSTSTVYMELSSLRSEDTAVYYCARSDRGITATDAFDIWGQGTMVTVSSGGGGSGGGGSGGGGSQSVLTQPPSVSVAPGQTAKITCGGSDIGNKNVHWYQQKPGQAPVLVVYDDYDRPSGIPERFSGSNSGDAATLTISTVEVGDEADYFCQVWDSSGDPYWVFGGGTQLTVLGAAATTTPAPRPPTPAPTIASQPLSLRPEACRPAAGGAVHTRGLDFACDIYIWAPLAGTCGVLLLSLVITLYCKRGRKKLLYIFKQPFMRPVQTTQEEDGCSCRFPEEEEGGCELRVKFSRSADAPAYQQGQNQLYNELNLGRREEYDVLDKRRGRDPEMGGKPRRKNPQEGLYNELQKDKMAEAYSEIGMKGERRRGKGHDGLYQGLSTATKDTYDALHMQALPPR
notes: Chimeric antigen receptor on the surface of transduced primary human T cells; also called ScFv1-CD8 TM-41BB-CD3 zeta
B10: LTG2069 (LP-M19217-29-CD8 TM-41BB-CD3 zeta) CAR (other)
chain: B9 chain with I50M, V169A, P195S, S229G, Y234F
notes: Chimeric antigen receptor on the surface of transduced primary human T cells; also called ScFv6-CD8TM-4-1BB-CD3 zeta
B11: LTG2067 (LP-M19217-7-CD8 TM-41BB-CD3 zeta) CAR (other)
chain: B9 chain with K12N, I50M, A105S, V149L, D189N, A206S, S229G
notes: Chimeric antigen receptor on the surface of transduced primary human T cells; also called ScFv4-CD8TM-4-1BB-CD3 zeta
B12: LTG2065 (LP-M19217-1-CD8 TM-41BB-CD3 zeta) CAR (other)
chain: B9 chain with I50L, Q153R, T154M, S229G, V236M
notes: Chimeric antigen receptor on the surface of transduced primary human T cells; also called ScFv2-CD8TM-4-1BB-CD3 zeta
B13: LTG2071 (LP-M19217-40-CD8 TM-41BB-CD3 zeta) CAR (other)
chain: B9 chain with K13R, E46V, I50L, I157T, F223V, S229G
notes: Chimeric antigen receptor on the surface of transduced primary human T cells; also called ScFv8-CD8TM-4-1BB-CD3 zeta
B14: LTG2068 (LP-M19217-23-CD8 TM-41BB-CD3 zeta) CAR (other)
chain: B9 chain with S31G, M48I, I50L, A61E, T69A, N166D, S229G, S230I
notes: Chimeric antigen receptor on the surface of transduced primary human T cells; also called ScFv5-CD8TM-4-1BB-CD3 zeta
B15: LTG2066 (LP-M19217-2-CD8 TM-41BB-CD3 zeta) CAR (other)
chain: B9 chain with L45F, I50L, G56S, S85N, S148P, T158I, S229G
notes: Chimeric antigen receptor on the surface of transduced primary human T cells; also called ScFv3-CD8TM-4-1BB-CD3 zeta
B16: LTG2070 (LP-M19217-38-CD8 TM-41BB-CD3 zeta) CAR (other)
chain: B9 chain with K13R, Q43R, I50L, K63E, T74M, T104S, T154M, D189N, S229G, V245D
notes: Chimeric antigen receptor on the surface of transduced primary human T cells; also called ScFv7-CD8TM-4-1BB-CD3 zeta

One assay deals with T1, recombinant human CD19 (labeled CD19) (human, UniProt P15391 20-291, limits assumed, fluorescent label, kind and site not stated).
T1 construct: The antigen titrated on yeast is only called 'labeled CD19'; also called fluorescently tagged antigen
T1 sequence (looked up): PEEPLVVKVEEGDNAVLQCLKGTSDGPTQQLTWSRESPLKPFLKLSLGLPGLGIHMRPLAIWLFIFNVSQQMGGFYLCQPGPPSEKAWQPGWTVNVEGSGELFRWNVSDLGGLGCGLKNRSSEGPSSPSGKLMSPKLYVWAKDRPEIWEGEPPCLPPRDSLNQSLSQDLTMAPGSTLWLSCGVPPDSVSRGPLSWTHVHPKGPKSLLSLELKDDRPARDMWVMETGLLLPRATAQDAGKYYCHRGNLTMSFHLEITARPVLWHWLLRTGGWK
The assay can be described thus: flow cytometry of yeast-displayed scFv titrated with decreasing amounts of labeled CD19. The method, then:
To increase the affinity of m19217, a yeast-display m19217 mutant scFv library was created by using error-prone PCR to create random point mutations in scFv gene sequences. After electroporation, the resulting mutant library was then grown overnight at 30° C. for 16 hours in SDCAA medium and then switched into SGCAA medium at 30° C. for another 16 hours. The mutant library was then sorted through MACS (immunomagentic column, Miltenyi Biotec) with CD19-Fc as the capture antigen to downsize the library and to increase the population of mutants that could bind to CD19-Fc. The strongest binders were then selected by double staining the pools with Anti-c-Myc-Alexa 488 and CD19-Fc/Anti-Hu-Fc and selecting for the binders that had the highest binding affinities as well as c-Myc expression levels. […] Binidng affinities were estimated by flow cytometry of yeast pools using decreasing amounts of labeled CD19.
A general note: In flow cytometry, cells or beads pass a laser one at a time.
The term EC50 denotes the concentration at which the effect is half-maximal. In the case of B1, the EC50 was 0.5 µg/mL.
Still for that read-out and setting: to B2 belongs under 0.01 µg/mL.
As for B3, the EC50 was under 0.01 µg/mL.
On the same count and under the same terms, to B4 belongs under 0.01 µg/mL.
On the same count and under the same terms, in the case of B5 it was under 0.01 µg/mL.
On the same count and under the same terms, to B6 belongs under 0.01 µg/mL; to B7, under 0.01 µg/mL.
Turning to B8, the EC50 is under 0.01 µg/mL.

The next assay concerns the target T2, CD19-Fc peptide (R&D, Minneapolis, Minn.) (UniProt P15391 20-291).
T2 construct: Bought reagent; also called recombinant CD19-Fc peptide; not shown: Fc part; bought reagent, detected with anti-human Fc F(ab')2-AF647
T2 sequence (looked up): T1 sequence (looked up)
The assay can be described thus: flow cytometry of CAR-transduced primary human T cells stained with CD19-Fc then anti Fc-AF647; untransduced T cells set as 0%. The method, then:
FIG. 3 depicts anti-CD19 CAR surface expression in primary human T cells. CAR T cells redirected to CD19 tumor antigen via the use of ScFv domains (as listed in each panel) were generated by lentiviral transduction with CAR expression constructs. CART detection was performed by flow cytometry. T cells were washed twice in cold PBS-EDTA buffer and stained with CD19-Fc peptide followed by anti Fc-AF647 reagent. At least 20,000 cells were acquired for each analysis. Cells were gated based on forward scatter and side scatter, singlet discrimination, and 7AAD negativity so that only viable cells were analyzed. Data were acquired on MACSQuant 10 flow cytometer in the APC channel. UTD, un-transduced negative control cells. The marker in each panel identifies the CAR-expressing population, and are listed as percent of total transduced T cells analyzed.
For cell staining, half a million CAR T transduced cells were harvested from culture, washed two times in cold AutoMACS buffer supplemented with 0.5% bovine serum albumin (Miltenyi Biotec), and CAR surface expression detected by staining with CD19-Fc peptide (R&D, Minneapolis, Minn.) followed by anti Fc-AF647 conjugate (Jackson ImmunoResearch, West Grove, Pa.). Non-transduced cells were used as negative controls. Dead cells in all studies were excluded by 7AAD staining (BD Biosciences, San Jose, Calif.). Cells were washed twice and resuspended in 200 ul Staining Buffer before quantitative analysis by flow cytometry. Flow cytometric analysis was performed on a MACSQuant®10 Analyzer (Miltenyi Biotec), and data plots were generated using FlowJo software (Ashland, Oreg.).
T cells were activated on culture Day 0 with TransAct T cell reagent (active engagement of CD3 and CD28 antigens, Miltenyi Biotec, Inc.) in the presence of IL-2 as described in Materials and Methods. On culture Day 8-10, expression of anti-CD19 CARs on T cell surface was detected by CD19-Fc peptide followed by anti Fc-AF647 and analyzed by flow cytometry.
As for B9, the “CAR expression level (percent of transduced T cells stained by CD19-Fc)” value was determined as 46%.
Same read-out and setting: in the case of B10 it was 68%.
On the same count and under the same terms, in the case of B11 it was 81%; in that of B12, 64%; in that of B13, 21%.
For B14, the “CAR expression level (percent of transduced T cells stained by CD19-Fc)” value turned out to be 54%.
The same measure, in the same setting: to B15 belongs 21%; to B16, 47%.
